Source: patent US20190330354A1 (MITSUBISHI TANABE PHARMA, published 2019)
Residue numbers refer to the chain shown, from its start. Read-outs that look alike come from different tables or passages of the source.

Assays:
[1] = biological target: T1, mouse cMET (mouse, UniProt P16056 25-931, limits assumed); assay: ELISA, antibody titrated on cMet of the named species, OD 450 nm
T1 construct: ELISA antigen

[2] = biological target: T2, Canine (limits assumed); assay: as above
T2 construct: also called canine cMet; dog cMET
T2 receptor: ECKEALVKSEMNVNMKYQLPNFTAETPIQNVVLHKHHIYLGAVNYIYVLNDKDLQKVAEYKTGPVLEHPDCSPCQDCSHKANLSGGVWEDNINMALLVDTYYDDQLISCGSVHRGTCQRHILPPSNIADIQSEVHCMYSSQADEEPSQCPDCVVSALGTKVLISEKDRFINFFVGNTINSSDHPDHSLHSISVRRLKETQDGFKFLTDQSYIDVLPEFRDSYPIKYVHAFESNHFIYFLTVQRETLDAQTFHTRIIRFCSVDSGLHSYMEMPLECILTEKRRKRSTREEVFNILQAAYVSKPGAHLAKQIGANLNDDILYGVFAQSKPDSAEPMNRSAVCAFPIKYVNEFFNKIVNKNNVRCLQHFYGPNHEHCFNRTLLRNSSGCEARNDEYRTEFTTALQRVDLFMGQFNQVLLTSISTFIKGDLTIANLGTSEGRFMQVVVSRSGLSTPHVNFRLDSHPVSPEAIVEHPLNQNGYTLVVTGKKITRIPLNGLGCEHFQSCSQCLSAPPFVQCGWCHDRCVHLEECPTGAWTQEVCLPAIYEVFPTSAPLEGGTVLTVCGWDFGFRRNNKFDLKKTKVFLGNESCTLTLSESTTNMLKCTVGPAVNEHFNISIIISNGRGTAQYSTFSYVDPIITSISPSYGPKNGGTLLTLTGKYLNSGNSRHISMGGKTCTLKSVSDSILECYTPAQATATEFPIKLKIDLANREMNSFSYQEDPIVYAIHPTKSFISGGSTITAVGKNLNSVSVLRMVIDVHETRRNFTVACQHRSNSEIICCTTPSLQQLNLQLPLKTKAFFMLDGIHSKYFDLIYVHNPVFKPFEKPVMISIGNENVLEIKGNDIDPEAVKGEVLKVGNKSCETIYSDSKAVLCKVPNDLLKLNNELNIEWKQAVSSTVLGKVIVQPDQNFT

[3] = biological target: T3, rat cMET (rat, UniProt P97523 25-935, limits assumed); assay: as above
T3 construct: ELISA antigen; also called rMET

[4] = biological target: T1, mouse cMET; assay: as above; remark: listed apart in the source
[5] = biological target: T2, Canine; assay: as above
[6] = biological target: T3, rat cMET; assay: as above; remark: listed apart in the source
[7] = biological target: human cMET-Fc fusion protein (human) [IgG part: P01857]; assay: SPR with hMet-Fc
[8] = biological target: T1, mouse cMET; assay: ELISA, antibody titrated on cMet of the named species, OD 450 nm; remark: listed apart in the source
[9] = biological target: T2, Canine; assay: as above
[10] = biological target: T1, mouse cMET; assay: as above; remark: listed apart in the source
[11] = biological target: T2, Canine; assay: as above
[12] = biological target: T1, mouse cMET; assay: as above; remark: listed apart in the source
[13] = biological target: T2, Canine; assay: as above
[14] = biological target: T3, rat cMET; assay: ELISA on rat cMET, ratio to parental P3D12
Target sequence in this assay (P97523 25-935 limits assumed): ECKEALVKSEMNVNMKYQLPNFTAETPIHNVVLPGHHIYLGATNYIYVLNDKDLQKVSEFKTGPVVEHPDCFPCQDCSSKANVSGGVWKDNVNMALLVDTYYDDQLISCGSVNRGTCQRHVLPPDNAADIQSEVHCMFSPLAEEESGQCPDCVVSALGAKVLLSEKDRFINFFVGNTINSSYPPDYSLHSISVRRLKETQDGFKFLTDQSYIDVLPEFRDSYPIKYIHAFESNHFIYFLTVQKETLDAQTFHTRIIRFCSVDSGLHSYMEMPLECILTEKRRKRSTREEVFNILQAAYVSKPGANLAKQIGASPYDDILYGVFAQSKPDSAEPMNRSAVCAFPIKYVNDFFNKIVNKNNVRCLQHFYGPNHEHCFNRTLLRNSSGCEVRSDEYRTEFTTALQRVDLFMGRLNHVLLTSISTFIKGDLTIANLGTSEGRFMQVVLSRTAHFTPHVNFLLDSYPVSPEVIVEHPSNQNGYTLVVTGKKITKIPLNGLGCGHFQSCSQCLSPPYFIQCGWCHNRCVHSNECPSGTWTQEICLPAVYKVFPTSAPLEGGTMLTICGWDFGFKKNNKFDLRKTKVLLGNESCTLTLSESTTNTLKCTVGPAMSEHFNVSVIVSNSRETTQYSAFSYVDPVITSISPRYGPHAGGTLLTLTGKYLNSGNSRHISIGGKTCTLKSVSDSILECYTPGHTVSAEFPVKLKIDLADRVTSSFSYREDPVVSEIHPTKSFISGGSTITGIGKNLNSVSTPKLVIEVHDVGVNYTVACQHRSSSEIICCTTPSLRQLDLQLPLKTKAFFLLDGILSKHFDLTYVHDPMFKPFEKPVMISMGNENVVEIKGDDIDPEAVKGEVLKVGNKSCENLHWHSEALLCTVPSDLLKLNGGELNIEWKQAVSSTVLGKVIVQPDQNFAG

[15] = biological target: T4, human cMET (human, UniProt P08581 25-932, limits assumed); assay: ELISA on human cMET, ratio to parental P3D12
T4 construct: also called hMET
T4 sequence (P08581 25-932 limits assumed): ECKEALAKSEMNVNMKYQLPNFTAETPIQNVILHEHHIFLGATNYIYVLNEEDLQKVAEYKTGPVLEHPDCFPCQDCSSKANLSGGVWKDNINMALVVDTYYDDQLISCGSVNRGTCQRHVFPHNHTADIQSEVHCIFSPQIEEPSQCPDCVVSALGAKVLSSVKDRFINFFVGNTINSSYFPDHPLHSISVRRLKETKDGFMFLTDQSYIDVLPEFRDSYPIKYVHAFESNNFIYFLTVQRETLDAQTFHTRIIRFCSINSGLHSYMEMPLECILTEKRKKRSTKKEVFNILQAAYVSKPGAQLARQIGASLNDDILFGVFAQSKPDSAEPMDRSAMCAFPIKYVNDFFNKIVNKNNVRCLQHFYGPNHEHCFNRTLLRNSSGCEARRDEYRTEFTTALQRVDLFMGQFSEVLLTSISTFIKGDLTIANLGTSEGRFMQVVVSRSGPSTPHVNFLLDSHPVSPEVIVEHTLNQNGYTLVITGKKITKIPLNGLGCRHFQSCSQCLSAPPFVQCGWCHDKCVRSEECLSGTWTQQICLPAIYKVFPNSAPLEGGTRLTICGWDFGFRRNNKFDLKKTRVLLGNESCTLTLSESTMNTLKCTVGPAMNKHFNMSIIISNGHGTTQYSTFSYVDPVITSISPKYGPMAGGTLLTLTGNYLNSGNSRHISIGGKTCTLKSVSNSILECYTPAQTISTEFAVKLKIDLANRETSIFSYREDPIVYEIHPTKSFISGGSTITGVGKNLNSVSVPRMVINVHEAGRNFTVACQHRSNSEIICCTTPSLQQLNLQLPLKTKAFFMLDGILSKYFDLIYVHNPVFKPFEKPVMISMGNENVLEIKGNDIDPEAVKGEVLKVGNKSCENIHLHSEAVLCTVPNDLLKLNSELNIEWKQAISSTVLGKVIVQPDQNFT

B1: F6AP8E2 (antibody, V domains shown)
VH: EVQLQQSGAELVRPGALVKLSCKASGFNINDYFMHWVKQRPEQGLEWIGWIDPENGNTIYDPKFQGKASITADTSSNTAYLQLSSLTSEDTAVYYCARGGNYLRESYYYAMDYWGQGTSVTVSS
VL: DIVMTQSPKSMSMSVGERVTLSCKASENVGTYVSWYQQKPDQSPKLLIYGASNRYTGVPDRFTGSGSATDFTLTISSVQAEDLADYHCGQSYSYPLTFGAGTKLELKR
notes: Mouse monoclonal antibody
binding result [1]: no binding (tested: 10 ug/mL (axis value 1, log10)) | binding result [2]: no binding (tested: 10 ug/mL (axis value 1, log10)) | binding result [3]: no binding (tested: 10 ug/mL (axis value 1, log10))

B2: F5P5B9 (antibody, V domains shown)
VH: QVQLKESGPGLVAPSQSLSITCTVSGFSLTNYGVNWVRQPPGKGLEWLGLIWGGGDTDYNSALKSRLSISKDNSKSQVFLKMETNSLQTDDTARYYCARDYYGFDYWGQGTTLTVSS
VL: DVLMTQTPLSLPVSLGDQASISCRSSQTIVHGTGNTYLEWYLQKPGQSPKLLIYKVSNRFSGVPDRFSGSGSGTDFTLKISRVEAEDLGVYYCFQGSHVPYTFGGGTKLEIKR
notes: Mouse monoclonal antibody
binding result [4]: no binding (tested: 10 ug/mL) | binding result [5]: no binding (tested: 10 ug/mL) | binding result [6]: no binding (tested: 10 ug/mL)

B3: ABF46 (antibody, from another filing, V domains shown)
VH: EVKLVESGGGLVQPGGSLRLSCATSGFTFTDYYMSWVRQPPGKALEWLGFIRNKANGYTTEYSASVKGRFTISRDNSQSILYLQMDTLRAEDSATYYCARDNWFAYWGQGTLVTVSA
VL: DILMTQSPSSLTVSAGEKVTMSCKSSQSLLASGNQNNYLAWHQQKPGRSPKMLIIWASTRVSGVPDRFIGSGSGTDFTLTINSVQAEDLAVYYCQQSYSAPLTFGAGTKLELKR
Kd [7]: 0.7 nM

B4: F6B1P3D12 (antibody, V domains shown)
VH: QVQLQQSGAELAKPGASVKMSCRASGYTFTSYWMHWVKQRPGQGLDWIGYIKPSTDNTEYNQKFKDKATLTADKSSSTAYMQLSSLTSEDSAVYYCARSYGNYPLMDYWGQGTSVTVSS
VL: QIVLTQSPAIMSASPGEKVTLTCSASSSVTSNYLYWYQQKPGSSPKLWIYSTSNLASGVPARFSGSGSGTSYSLTISSMEAEDAASYFCHQWSSYPPTFGSGTKLEIKR
notes: Mouse monoclonal antibody from a hybridoma; also called Mouse P3D12; P3D12(mouse)
binding result [8]: no binding (tested: 10 ug/mL (axis value 1, log10)) | binding result [9]: no binding (tested: 10 ug/mL (axis value 1, log10))

B5: F6B1P1E2 (antibody, V domains shown)
VH: B4 VH with R23K, D46E, K52N, N57Y, S77T, A97V
VL: B4 VL with T30S, Q38H, A61V
notes: Mouse monoclonal antibody
binding result [10]: no binding (tested: 10 ug/mL (axis value 1, log10)) | binding result [11]: no binding (tested: 10 ug/mL (axis value 1, log10))

B6: F6BP2D4 (antibody, V domains shown)
VH: B4 VH with R23K, D46E, K52N, N57Y, T58I, D73G, Y103F
VL: B4 VL with T30S, A61V
notes: Mouse monoclonal antibody
binding result [12]: no binding (tested: 10 ug/mL (axis value 1, log10)) | binding result [13]: no binding (tested: 10 ug/mL (axis value 1, log10))

B7: G2vkc (antibody, V domains shown)
VH: B4 VH with Q5V, L11V, R23K, R40A, S76T, T87R, S91T, S114T
VL: QIVLTQSPATLSLSPGERATLSCSASSSVTSNYLYWYQQKPGSSPRLLIYSTSNLASGVPARFSGSGSGTSYTLTISRLEPEDFASYFCHQWSSYPPTFGSGTKLEIKR
notes: As G2aka; also called humanized P3D12, HC VH-ven, LC cdr
ELISA rMET vs parental [14]: 1.9 | ELISA hMET vs parental [15]: 1.1

B8: G2akv (antibody, V domains shown)
VH: QVQLVQSGAEVKKPGASVKVSCKASGYTFTSYWMHWVKQAPGQGLDWMGYIKPSTDNTEYAQKFQGRVTLTADKSTSTAYMELSSLRSEDTAVYYCARSYGNYPLMDYWGQGTTVTVSS
VL: B7 VL with L11M, L13A, A19V, L48W, L79M, F84A
notes: As G2aka; reported insoluble in PBS; also called humanized P3D12, HC VH-abb/sdr, LC ven
ELISA rMET vs parental [14]: 1.3 | ELISA hMET vs parental [15]: 1.8

B9: G2vkv (antibody, V domains shown)
VH: B4 VH with Q5V, L11V, R23K, R40A, S76T, T87R, S91T, S114T
VL: B7 VL with L11M, L13A, A19V, L48W, L79M, F84A
notes: As G2aka; reported insoluble in PBS; also called humanized P3D12, HC VH-ven, LC ven
ELISA rMET vs parental [14]: 1.6 | ELISA hMET vs parental [15]: 1.8

B10: G2vka (antibody, V domains shown)
VH: B4 VH with Q5V, L11V, R23K, R40A, S76T, T87R, S91T, S114T
VL: B7 VL with S24R, S27Q, S71D
notes: As G2aka; also called humanized P3D12, HC VH-ven, LC abb/sdr
ELISA rMET vs parental [14]: 2.7 | ELISA hMET vs parental [15]: 0.9

B11: G2akc (antibody, V domains shown)
VH: B8 VH
VL: B7 VL
notes: As G2aka; also called humanized P3D12, HC VH-abb/sdr, LC cdr
ELISA rMET vs parental [14]: 0.7 | ELISA hMET vs parental [15]: 1.3

B12: G2vkf (antibody, V domains shown)
VH: B4 VH with Q5V, L11V, R23K, R40A, S76T, T87R, S91T, S114T
VL: B7 VL with T10I, R46K, R78S, P81A, F84A
notes: As G2aka; also called humanized P3D12, HC VH-ven, LC fra
ELISA rMET vs parental [14]: 1 | ELISA hMET vs parental [15]: 1.1
